# T1: IL-23 (IL-23p19/p40), crystallography construct (human, UniProt Q9NPF7 20-189; P29460 23-328)
# T1 sequence (looked up) 1: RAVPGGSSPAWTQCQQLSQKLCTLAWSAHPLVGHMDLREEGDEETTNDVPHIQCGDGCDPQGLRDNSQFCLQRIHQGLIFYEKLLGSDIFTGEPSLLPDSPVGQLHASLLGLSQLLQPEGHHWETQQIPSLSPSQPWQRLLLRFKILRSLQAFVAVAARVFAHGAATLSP
# T1 sequence (looked up) 2: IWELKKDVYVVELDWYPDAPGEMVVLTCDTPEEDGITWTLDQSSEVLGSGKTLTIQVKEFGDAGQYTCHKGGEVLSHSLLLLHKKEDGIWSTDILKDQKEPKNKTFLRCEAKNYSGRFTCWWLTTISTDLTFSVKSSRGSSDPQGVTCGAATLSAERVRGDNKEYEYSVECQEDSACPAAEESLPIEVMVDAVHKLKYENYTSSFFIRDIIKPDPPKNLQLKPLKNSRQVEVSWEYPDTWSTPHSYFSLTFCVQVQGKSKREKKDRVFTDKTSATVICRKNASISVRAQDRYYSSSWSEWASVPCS
# T2: human IL-23R (1–309) (human, UniProt Q5VWK5-1 24-309)
# T2 sequence (looked up): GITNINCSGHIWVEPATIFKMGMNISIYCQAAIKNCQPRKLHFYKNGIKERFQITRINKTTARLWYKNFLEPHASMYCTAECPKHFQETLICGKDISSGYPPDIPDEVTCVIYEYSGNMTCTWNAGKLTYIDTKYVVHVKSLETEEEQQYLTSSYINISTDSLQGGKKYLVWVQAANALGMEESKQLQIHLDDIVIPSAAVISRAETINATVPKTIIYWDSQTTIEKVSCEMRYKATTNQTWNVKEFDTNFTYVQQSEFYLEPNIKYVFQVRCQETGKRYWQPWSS
# B1: human IL-23R (1–315), crystallography construct (domain or fragment, UniProt Q5VWK5-1 24-315, looked up)
# chain: GITNINCSGHIWVEPATIFKMGMNISIYCQAAIKNCQPRKLHFYKNGIKERFQITRINKTTARLWYKNFLEPHASMYCTAECPKHFQETLICGKDISSGYPPDIPDEVTCVIYEYSGNMTCTWNAGKLTYIDTKYVVHVKSLETEEEQQYLTSSYINISTDSLQGGKKYLVWVQAANALGMEESKQLQIHLDDIVIPSAAVISRAETINATVPKTIIYWDSQTTIEKVSCEMRYKATTNQTWNVKEFDTNFTYVQQSEFYLEPNIKYVFQVRCQETGKRYWQPWSSLFFHKT
# B2: human p40 (23-328), crystallography construct (natural protein)
# chain: IWELKKDVYVVELDWYPDAPGEMVVLTCDTPEEDGITWTLDQSSEVLGSGKTLTIQVKEFGDAGQYTCHKGGEVLSHSLLLLHKKEDGIWSTDILKDQKEPKNKTFLRCEAKNYSGRFTCWWLTTISTDLTFSVKSSRGSSDPQGVTCGAATLSAERVRGDNKEYEYSVECQEDSACPAAEESLPIEVMVDAVHKLKYENYTSSFFIRDIIKPDPPKNLQLKPLKNSRQVEVSWEYPDTWSTPHSYFSLTFCVQVQGKSKREKKDRVFTDKTSATVICRKNASISVRAQDRYYSSSWSEWASVPCS
# Assays:
# [1] = target: T1, IL-23 (IL-23p19/p40), crystallography …; assay: crystal structure
# [2] = target: B2; assay: crystal structure
# [3] = target: T3, human IL-12Rβ1 D1–D2 (25–239) (human, UniProt P42701 25-239); assay: SPR
# [4] = target: T3, human IL-12Rβ1 D1–D2 (25–239); assay: crystal structure
# [5] = target: affi-IL-12Rβ1 D1–D2 (25–239) Tyr109Ser Gln132Leu (human, UniProt P42701 25-239, Tyr109Ser | Gln132Leu); assay: SPR
# [6] = target: affi-IL-12Rβ1 D1–D5 (25–542) Tyr109Ser Gln132Leu (human, UniProt P42701 25-542, Tyr109Ser | Gln132Leu); assay: cryo-EM structure
# human IL-23R (1–309) = target: T2, human IL-23R (1–309); assay: cryo-EM structure
# [7] = target: B1; assay: crystal structure
binder,measurement,setting,value
B1,binding result,[1],binds
same,binding result,[2],binds
"IL-23 (IL-23p19 and p40), biotinylated, SPR construct (complex, biotin on the AviTag (BirA ligase)) chain 1: PAWTQCQQLSQKLCTLAWSAHPLVGHMDLREEGDEETTNDVPHIQCGDGCDPQGLRDNSQFCLQRIHQGLIFYEKLLGSDIFTGEPSLLPDSPVGQLHASLLGLSQLLQPEGHHWETQQIPSLSPSQPWQRLLLRFKILRSLQAFVAVAARVFAHGAATLSP chain 2: IWELKKDVYVVELDWYPDAPGEMVVLTCDTPEEDGITWTLDQSSEVLGSGKTLTIQVKEFGDAGQYTCHKGGEVLSHSLLLLHKKEDGIWSTDILKDQKEPKNKTFLRCEAKNYSGRFTCWWLTTISTDLTFSVKSSRGSSDPQGVTCGAATLSAERVRGDNKEYEYSVECQEDSACPAAEESLPIEVMVDAVHKLKYENYTSSFFIRDIIKPDPPKNLQLKPLKNSRQVEVSWEYPDTWSTPHSYFSLTFCVQVQGKSKREKKDRVFTDKTSATVICRKNASISVRAQDRYYSSSWSEWASVPCS",binding result,[3],binds
B2,binding result,[4],binds
"human p40 (23–328) alone, biotinylated, SPR construct (natural protein, UniProt P29460 23-328, looked up, biotin on the AviTag (BirA ligase)) IWELKKDVYVVELDWYPDAPGEMVVLTCDTPEEDGITWTLDQSSEVLGSGKTLTIQVKEFGDAGQYTCHKGGEVLSHSLLLLHKKEDGIWSTDILKDQKEPKNKTFLRCEAKNYSGRFTCWWLTTISTDLTFSVKSSRGSSDPQGVTCGAATLSAERVRGDNKEYEYSVECQEDSACPAAEESLPIEVMVDAVHKLKYENYTSSFFIRDIIKPDPPKNLQLKPLKNSRQVEVSWEYPDTWSTPHSYFSLTFCVQVQGKSKREKKDRVFTDKTSATVICRKNASISVRAQDRYYSSSWSEWASVPCS",binding result,[5],binds
same,binding result,[3],binds
"IL-23 (IL-23p19 28–189 / p40 23–328 with BirA substrate peptide), T. ni expressed (complex, human, biotinylated in vitro for the yeast staining) chain 1: PAWTQCQQLSQKLCTLAWSAHPLVGHMDLREEGDEETTNDVPHIQCGDGCDPQGLRDNSQFCLQRIHQGLIFYEKLLGSDIFTGEPSLLPDSPVGQLHASLLGLSQLLQPEGHHWETQQIPSLSPSQPWQRLLLRFKILRSLQAFVAVAARVFAHGAATLSP chain 2: IWELKKDVYVVELDWYPDAPGEMVVLTCDTPEEDGITWTLDQSSEVLGSGKTLTIQVKEFGDAGQYTCHKGGEVLSHSLLLLHKKEDGIWSTDILKDQKEPKNKTFLRCEAKNYSGRFTCWWLTTISTDLTFSVKSSRGSSDPQGVTCGAATLSAERVRGDNKEYEYSVECQEDSACPAAEESLPIEVMVDAVHKLKYENYTSSFFIRDIIKPDPPKNLQLKPLKNSRQVEVSWEYPDTWSTPHSYFSLTFCVQVQGKSKREKKDRVFTDKTSATVICRKNASISVRAQDRYYSSSWSEWASVPCS",binding result,[6],binds
"human IL-23p19 (28–189), T. ni expressed (natural protein, UniProt Q9NPF7 28-189, looked up) PAWTQCQQLSQKLCTLAWSAHPLVGHMDLREEGDEETTNDVPHIQCGDGCDPQGLRDNSQFCLQRIHQGLIFYEKLLGSDIFTGEPSLLPDSPVGQLHASLLGLSQLLQPEGHHWETQQIPSLSPSQPWQRLLLRFKILRSLQAFVAVAARVFAHGAATLSP",binding result,human IL-23R (1–309),binds
"human p40 (23–328) with BirA substrate peptide, T. ni expressed (natural protein, UniProt P29460 23-328, looked up) IWELKKDVYVVELDWYPDAPGEMVVLTCDTPEEDGITWTLDQSSEVLGSGKTLTIQVKEFGDAGQYTCHKGGEVLSHSLLLLHKKEDGIWSTDILKDQKEPKNKTFLRCEAKNYSGRFTCWWLTTISTDLTFSVKSSRGSSDPQGVTCGAATLSAERVRGDNKEYEYSVECQEDSACPAAEESLPIEVMVDAVHKLKYENYTSSFFIRDIIKPDPPKNLQLKPLKNSRQVEVSWEYPDTWSTPHSYFSLTFCVQVQGKSKREKKDRVFTDKTSATVICRKNASISVRAQDRYYSSSWSEWASVPCS",binding result,[6],binds
"human IL-23p19 (20-189), crystallography construct (natural protein, UniProt Q9NPF7 20-189, looked up) RAVPGGSSPAWTQCQQLSQKLCTLAWSAHPLVGHMDLREEGDEETTNDVPHIQCGDGCDPQGLRDNSQFCLQRIHQGLIFYEKLLGSDIFTGEPSLLPDSPVGQLHASLLGLSQLLQPEGHHWETQQIPSLSPSQPWQRLLLRFKILRSLQAFVAVAARVFAHGAATLSP",binding result,[7],binds

# — article PMC7899134 (Cell, 2021)
